The text below walks through data of patent publication US20200362029A1 (IMMUNOGEN, published 2020).

Assay [1] addresses recombinant FRα antigen (human, UniProt P15328 25-234). The experiment in a line: BLI (Octet96), IgG on anti-human- or anti-murine-Fc sensors, recombinant FRα in solution, 1:1 fit. How it is done: Table 10 summarizes the kinetic parameters of binding of Bin1 and Bin 2 antibodies with recombinant FRα antigen. KD values were obtained via biolayer interferometry performed on Octet96 system (Fortebio) essentially according to manufacturer's recommended procedure. Briefly, anti-human- or anti-murine −Fc sensors were presoaked in 1× Kinetic Buffer (Fortebio) for 10 min and incubated with 5 μg/mL of either Bin 1 or Bin 2 IgG for 5 min. The sensors were then sequentially moved to 1× Kinetic Buffer for 5 min to determine baseline, serial dilutions of antigen for association (10 min), and 1× Kinetic Buffer for dissociation (10 min). The raw data was collected, processed and fitted to a simple 1:1 binding model using Fortebio analysis software to determine the kinetic parameters Kon and Koff.

In assay [2] the target is T1, human folate receptor alpha (FRα) on FRα-positive cells (KB, T47D, JHOS-4) (human, UniProt P15328 25-234).
T1 construct: Endogenous FRα on human tumour cell lines; also called FOLR1; folate receptor 1
T1 sequence (P15328 25-234 limits assumed, stated change not applied): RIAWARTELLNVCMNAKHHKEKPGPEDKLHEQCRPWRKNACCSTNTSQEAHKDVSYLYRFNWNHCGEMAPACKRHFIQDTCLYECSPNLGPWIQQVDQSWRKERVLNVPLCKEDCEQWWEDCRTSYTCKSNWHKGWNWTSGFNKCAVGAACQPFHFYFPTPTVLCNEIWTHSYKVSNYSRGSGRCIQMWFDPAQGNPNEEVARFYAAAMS
The assay can be described thus: competition FACS on FRα-positive T47D cells; Morrison antibody fixed at 0.8 nM, detected with anti-human FITC secondary; murine parental antibodies titrated (log axis -11 to -7, unit not given; text: 0.2 to 50 nM). How it is done:
These eight constructs were further polished using ceramic hydroxyapatite chromatography to greater than 95% purity and subjected to further characterization. To account for the effects of overall molecule conformation or potential structural changes of the scFv arms on the binding of the biparatopic arms, the binding efficiency of each arm of the eight Morrison's constructs was assayed by a competition FACS assay. Briefly, FRα-positive T47D cells were incubated with 0.8 nM of a Morrison's antibody mixed with a corresponding murine parental antibody at a range of concentrations, generally from 50 nM to 0.2 nM. After incubation on ice for 2 hours, cells were washed from unbound antibodies, and bound Morrison's antibody was detected with secondary anti-human FITC-labeled antibody. Reduced binding of the Morrison's antibody in the presence of increasing concentration of the parental antibody indicated an effect on binding of the second set of arms.

Sequence of recombinant FRα antigen (P15328 25-234 limits assumed): as the sequence (P15328 25-234 limits assumed, stated change not applied) above

B1: huMov19 (M9346A) antibody (antibody, V domains shown)
VH: QVQLVQSGAEVVKPGASVKISCKASGYTFTGYFMNWVKQSPGQSLEWIGRIHPYDGDTFYNQKFQGKATLTVDKSSNTAHMELLSLTSEDFAVYYCTRYDGSRAMDYWGQGTTVTVSS
VL: DIVLTQSPLSLAVSLGQPAIISCKASQSVSFAGTSLMHWYHQKPGQQPRLLIYRASNLEAGVPDRFSGSGSKTDFTLTISPVEAEDAATYYCQQSREYPYTFGGGTKLEIKR
notes: Humanized IgG1/kappa; also called huM9346A; huM9346A-biotin
As a reminder, the Kd is the free concentration of one partner at which half of the binding sites on the other are occupied at equilibrium, for simple one-to-one binding. As a reminder, the koff is a measure of how fast the partners let go of each other. As a reminder, the kon is a measure of how fast the partners come together. Turning to B1, in assay [1], the dissociation constant Kd was found to be 600 pM, the dissociation rate constant (koff) amounted to 0.0003 s⁻¹ and the association rate constant (kon) amounted to 500000 M⁻¹ s⁻¹.

B2: Mov19-G1-FR57scFv1 (Molecule-1: mov19-IgG1-FR57scFv1) (bispecific antibody)
heavy: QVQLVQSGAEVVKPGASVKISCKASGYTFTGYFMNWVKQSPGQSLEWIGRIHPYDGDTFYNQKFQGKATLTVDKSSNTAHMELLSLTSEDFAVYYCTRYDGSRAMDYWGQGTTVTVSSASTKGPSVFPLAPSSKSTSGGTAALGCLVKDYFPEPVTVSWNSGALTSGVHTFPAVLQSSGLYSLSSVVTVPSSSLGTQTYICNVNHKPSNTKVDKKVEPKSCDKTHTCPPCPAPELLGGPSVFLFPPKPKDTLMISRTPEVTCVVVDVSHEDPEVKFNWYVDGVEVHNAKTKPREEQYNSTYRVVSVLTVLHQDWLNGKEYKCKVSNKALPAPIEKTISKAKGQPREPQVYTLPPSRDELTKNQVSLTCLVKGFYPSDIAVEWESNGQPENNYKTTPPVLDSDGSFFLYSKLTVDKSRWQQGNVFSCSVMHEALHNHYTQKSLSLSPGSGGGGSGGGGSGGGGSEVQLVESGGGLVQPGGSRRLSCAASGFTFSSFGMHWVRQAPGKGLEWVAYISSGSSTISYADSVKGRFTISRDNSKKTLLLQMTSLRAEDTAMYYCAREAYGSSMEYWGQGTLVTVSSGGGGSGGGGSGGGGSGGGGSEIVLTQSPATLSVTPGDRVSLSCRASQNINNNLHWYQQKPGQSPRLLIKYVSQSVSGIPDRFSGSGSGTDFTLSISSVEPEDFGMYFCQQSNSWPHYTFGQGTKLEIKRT
light: DIVLTQSPLSLAVSLGQPAIISCKASQSVSFAGTSLMHWYHQKPGQQPRLLIYRASNLEAGVPDRFSGSGSKTDFTLTISPVEAEDAATYYCQQSREYPYTFGGGTKLEIKRTVAAPSVFIFPPSDEQLKSGTASVVCLLNNFYPREAKVQWKVDNALQSGNSQESVTEQDSKDSTYSLSSTLTLSKADYEKHKVYACEVTHQGLSSPVTKSFNRGEC
notes: Tetravalent Morrison format with the FR57 scFv on the C-terminus of the Mov19 IgG1 heavy chain; also called Mov19:FR57scFv; M9346A-FR57scFv
Turning to B2, in assay [2], the binding result is on record as “binds”.

B3: FR57-G1-Mov19scFv1 (Molecule 2: FR57-IgG1-mov19scFv1) (bispecific antibody)
heavy: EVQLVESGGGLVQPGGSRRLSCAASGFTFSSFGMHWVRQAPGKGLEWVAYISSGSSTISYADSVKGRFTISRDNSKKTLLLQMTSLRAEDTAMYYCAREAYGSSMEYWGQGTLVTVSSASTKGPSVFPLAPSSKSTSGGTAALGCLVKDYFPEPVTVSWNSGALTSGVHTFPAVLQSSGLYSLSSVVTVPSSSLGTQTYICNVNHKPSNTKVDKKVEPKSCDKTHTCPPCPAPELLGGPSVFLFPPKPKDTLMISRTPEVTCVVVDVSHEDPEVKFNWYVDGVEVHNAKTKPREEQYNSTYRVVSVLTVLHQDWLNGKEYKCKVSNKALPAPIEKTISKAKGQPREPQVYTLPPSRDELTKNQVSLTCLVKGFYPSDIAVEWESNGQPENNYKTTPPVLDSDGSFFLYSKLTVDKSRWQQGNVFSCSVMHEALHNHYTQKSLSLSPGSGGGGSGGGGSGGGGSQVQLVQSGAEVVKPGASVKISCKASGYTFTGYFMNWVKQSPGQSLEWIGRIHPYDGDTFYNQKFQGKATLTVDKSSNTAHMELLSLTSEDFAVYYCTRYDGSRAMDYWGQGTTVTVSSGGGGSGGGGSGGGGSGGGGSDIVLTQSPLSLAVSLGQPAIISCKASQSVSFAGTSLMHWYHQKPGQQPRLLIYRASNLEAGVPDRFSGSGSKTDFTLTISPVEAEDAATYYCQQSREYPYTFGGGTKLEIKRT
light: EIVLTQSPATLSVTPGDRVSLSCRASQNINNNLHWYQQKPGQSPRLLIKYVSQSVSGIPDRFSGSGSGTDFTLSISSVEPEDFGMYFCQQSNSWPHYTFGQGTKLEIKRTVAAPSVFIFPPSDEQLKSGTASVVCLLNNFYPREAKVQWKVDNALQSGNSQESVTEQDSKDSTYSLSSTLTLSKADYEKHKVYACEVTHQGLSSPVTKSFNRGEC
notes: Tetravalent Morrison format with the Mov19 scFv on the C-terminus of the FR57 IgG1 heavy chain; also called FR57:Mov19scFv; FR57-M9346AscFv
In the case of B3, in assay [2], the binding result is reported as “binds”.

B4: FR57 antibody (antibody, V domains shown)
VH: EVQLVESGGGLVQPGGSRRLSCAASGFTFSSFGMHWVRQAPGKGLEWVAYISSGSSTISYADSVKGRFTISRDNSKKTLLLQMTSLRAEDTAMYYCAREAYGSSMEYWGQGTLVTVSS
VL: EIVLTQSPATLSVTPGDRVSLSCRASQNINNNLHWYQQKPGQSPRLLIKYVSQSVSGIPDRFSGSGSGTDFTLSISSVEPEDFGMYFCQQSNSWPHYTFGQGTKLEIK
notes: Tested as an IgG; Only the variable domains are tied to the stand-alone antibody; also called huFR57; FR1-57
Turning to B4, in assay [1], the Kd came to 1000 pM, the koff is 0.0004 s⁻¹ and the kon stood at 300000 M⁻¹ s⁻¹.
